Variants at the floor of the assay were thinned out.
What was measured:
biotinyl-Phe-oxazolone = experiment: self-aminoacylation, catalytic enhancement (BFO) (fold over background); higher = more active; k-Seq, kA / k0A0; sequences stand for … in GGGAAUGGAUCCACAUCUACGAAUUC…UUCACUGCAGACUUGACGAAGCUG
How it was run: (§1)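 Mutagenized RNA pools with a 21-nt variable region (0.43 μM) were reacted with each biotinyl-aminoacyl-oxazolone at 2–1250 μM for 90 minutes at room temperature, in 50 μL HEPES/NaCl/KCl/MgCl2/CaCl2 buffer containing 5% acetonitrile at pH 6.9–7.0. RNA captured on streptavidin was quantified by triplicate qPCR and by Illumina sequencing. The fraction reacted for each sequence was fit to a pseudo-first-order model with bootstrapping, and catalytic enhancement is the median kA divided by the uncatalyzed rate, taken as the low-activity peak of a bimodal Gaussian fit.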

biotinyl-Trp-oxazolone = experiment: self-aminoacylation, catalytic enhancement (BWO) (fold over background); higher = more active; k-Seq, kA / k0A0; sequences stand for … in GGGAAUGGAUCCACAUCUACGAAUUC…UUCACUGCAGACUUGACGAAGCUG
How it was run: as §1

Row | Sequence | self-aminoacylation (biotinyl-Phe-oxazolone) | self-aminoacylation (biotinyl-Trp-oxazolone)
1 | CCAAACUUCAAGUAAUCGGUC [Fam1B.1 aminoacylation ribozyme variant] | 10.5 | 7.85
2 | CUACUUCAAAUAAUCGGUCUG [Fam1A.1 aminoacylation ribozyme variant] | 18.3 | 10.5
3 | CUACUUCAACCAAUCGGUCGG [Fam1A.1 aminoacylation ribozyme variant] | 14.3 | 8.86
4 | AUACUUCAAACAAUCGGUCGG [Fam1A.1 aminoacylation ribozyme variant] | 5.46 | 4.83
5 | UAGUUUCCUAAUAGUCGCAAG [Fam3.1 aminoacylation ribozyme variant] | 2.31 | 2.1
6 | GCACACUCCAAGCAAUCGGUC [Fam1B.1 aminoacylation ribozyme variant] | 2.35 | 2.53
7 | AAGGAUGCUAAUAGUCGCAAG [Fam3.1 aminoacylation ribozyme variant] | 13.7 | 5.63
8 | CUGCUUCAAAUAAUCGGUCUG [Fam1A.1 aminoacylation ribozyme variant] | 23.7 | 17.4
9 | AUUCAGCUAGGUCAUCGGGUC [Fam2.2 aminoacylation ribozyme variant] | 13.5 | 3.24
10 | CUACUUCAACAAAUCGGUCUG [Fam1A.1 aminoacylation ribozyme variant] | 7.2 | 5.45
11 | AAGUUUGGUCAUAGUCGCAAG [Fam3.1 aminoacylation ribozyme variant] | 2.71 | 2.16
12 | UUACUUCAAACAAUCGGUCAG [Fam1A.1 aminoacylation ribozyme variant] | 8.02 | 5.17
13 | CAACUUCAAACAAUCAGUCUG [Fam1A.1 aminoacylation ribozyme variant] | 29.7 | 11.2
14 | AAGUUUGCUAAUAGUCCCAAG [Fam3.1 aminoacylation ribozyme variant] | 5.64 | 2.12
15 | AAGUGUGCUAAAAGUCGCAAG [Fam3.1 aminoacylation ribozyme variant] | 10.1 | 4.61
16 | AAGCUUGCUAAUAGUCGCUAG [Fam3.1 aminoacylation ribozyme variant] | 2.31 | 2
17 | CCACAGUUCAAACAAUCGGUC [Fam1B.1 aminoacylation ribozyme variant] | 18.2 | 12
18 | CUUCUUCAAACAAUCAGUCUG [Fam1A.1 aminoacylation ribozyme variant] | 12.3 | 5.05
19 | CAACUUCAAACAAUCCGUCUG [Fam1A.1 aminoacylation ribozyme variant] | 2.94 | 2.31
20 | AAGUUUGCAAAUAGUCGCGAG [Fam3.1 aminoacylation ribozyme variant] | 2.69 | 3.06
21 | GUACUUCAAGCAAUCGGUCUG [Fam1A.1 aminoacylation ribozyme variant] | 8.1 | 7.17
22 | AAGUUGGCUAAUAGUCGAAAG [Fam3.1 aminoacylation ribozyme variant] | 2.91 | 2.27
23 | CGACUUCAAACAAUCGGUCCG [Fam1A.1 aminoacylation ribozyme variant] | 4.63 | 4.64
24 | CUCCUUCAAUCAAUCGGUCUG [Fam1A.1 aminoacylation ribozyme variant] | 24.6 | 18.4

Row | Sequence | self-aminoacylation (biotinyl-Phe-oxazolone) | self-aminoacylation (biotinyl-Trp-oxazolone)
25 | AAGUUUGCUAAAAGUCGAAAG [Fam3.1 aminoacylation ribozyme variant] | 4.76 | 2.17
26 | AAUUUUGCUGAUAGUCGCAAG [Fam3.1 aminoacylation ribozyme variant] | 2.05 | 2.31
27 | CUGCUACAAACAAUCGGUCUG [Fam1A.1 aminoacylation ribozyme variant] | 2.73 | 2.27
28 | AAGUGUGCUCAUAGUCGCAAG [Fam3.1 aminoacylation ribozyme variant] | 4.43 | 2.34
29 | AUGUUUGCUAAUAGUCGUAAG [Fam3.1 aminoacylation ribozyme variant] | 18.7 | 5.05
30 | AUACUUCAAACAAUCGGGCUG [Fam1A.1 aminoacylation ribozyme variant] | 3.63 | 3.93
31 | CCACACUUCAAUCAAUCAGUC [Fam1B.1 aminoacylation ribozyme variant] | 22.8 | 7.45
32 | CCAGACUUCAAUCAAUCGGUC [Fam1B.1 aminoacylation ribozyme variant] | 34.2 | 21.1
33 | CUGCGUCAAACAAUCGGUCUG [Fam1A.1 aminoacylation ribozyme variant] | 8.22 | 7.19
34 | CAACACUUCAAGAAAUCGGUC [Fam1B.1 aminoacylation ribozyme variant] | 7.2 | 5.88
35 | AAGUUUGCUAAUUGUCGCAAA [Fam3.1 aminoacylation ribozyme variant] | 8.83 | 2.49
36 | CCAACCUUCAAGCAAUCGGUC [Fam1B.1 aminoacylation ribozyme variant] | 25.8 | 15.3
37 | CGAAUUCAAACAAUCGGUCUG [Fam1A.1 aminoacylation ribozyme variant] | 4.97 | 3.38
38 | UUACUUCAAUCAAUCGGUCUG [Fam1A.1 aminoacylation ribozyme variant] | 19.7 | 15
39 | GAGUUUUCUAAUAGUCGCAAG [Fam3.1 aminoacylation ribozyme variant] | 3.59 | 2.07
40 | CUACUUCAAACAAUCGGUCCC [Fam1A.1 aminoacylation ribozyme variant] | 11.1 | 6.63
41 | CUACUUCAAAAAAUCGGGCUG [Fam1A.1 aminoacylation ribozyme variant] | 3.05 | 3.06
42 | AAGGUUGCUAAUAGUCGUAAG [Fam3.1 aminoacylation ribozyme variant] | 13.7 | 4.23
43 | CCAGCCUUCAAGCAAUCGGUC [Fam1B.1 aminoacylation ribozyme variant] | 30.7 | 21.3
44 | CAACUUCAAAGAAUCGGUCUG [Fam1A.1 aminoacylation ribozyme variant] | 7.1 | 7.86
45 | CUACUUCAAAAAAUCGGUAUG [Fam1A.1 aminoacylation ribozyme variant] | 4.4 | 2.5
46 | AAGAUUGCUAAUAGUCGCCAG [Fam3.1 aminoacylation ribozyme variant] |  | 2.02
47 | CGACACUUCAAGCAAUCGGUU [Fam1B.1 aminoacylation ribozyme variant] |  | 2.37
48 | CCACACUCCGAGCAAUCGGUC [Fam1B.1 aminoacylation ribozyme variant] |  | 2.37
